Patent US20250304640A1 (ORIKINE BIO SL, published 2025)

T1: IL-10 receptor (IL-10R: IL10RA and IL10RB) on HEK-Blue IL-10 reporter cells (UniProt Q13651 22-578; Q08334 20-325, limits assumed)
T1 sequence (looked up) 1: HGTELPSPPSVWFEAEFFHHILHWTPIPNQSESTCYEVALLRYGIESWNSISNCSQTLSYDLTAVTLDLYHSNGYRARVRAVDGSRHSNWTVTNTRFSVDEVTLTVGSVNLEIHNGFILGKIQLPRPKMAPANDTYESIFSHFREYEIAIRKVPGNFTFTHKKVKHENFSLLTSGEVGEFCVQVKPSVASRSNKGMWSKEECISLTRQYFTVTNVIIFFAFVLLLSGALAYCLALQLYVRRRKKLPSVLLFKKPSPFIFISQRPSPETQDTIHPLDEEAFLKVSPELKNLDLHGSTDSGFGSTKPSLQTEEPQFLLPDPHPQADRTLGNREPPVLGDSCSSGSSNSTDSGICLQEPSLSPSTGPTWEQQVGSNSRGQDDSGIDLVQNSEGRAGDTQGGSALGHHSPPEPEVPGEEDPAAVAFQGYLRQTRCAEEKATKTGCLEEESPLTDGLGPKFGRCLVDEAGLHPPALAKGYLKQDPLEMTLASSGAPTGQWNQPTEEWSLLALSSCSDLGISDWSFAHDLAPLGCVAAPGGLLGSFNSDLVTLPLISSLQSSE
T1 sequence (looked up) 2: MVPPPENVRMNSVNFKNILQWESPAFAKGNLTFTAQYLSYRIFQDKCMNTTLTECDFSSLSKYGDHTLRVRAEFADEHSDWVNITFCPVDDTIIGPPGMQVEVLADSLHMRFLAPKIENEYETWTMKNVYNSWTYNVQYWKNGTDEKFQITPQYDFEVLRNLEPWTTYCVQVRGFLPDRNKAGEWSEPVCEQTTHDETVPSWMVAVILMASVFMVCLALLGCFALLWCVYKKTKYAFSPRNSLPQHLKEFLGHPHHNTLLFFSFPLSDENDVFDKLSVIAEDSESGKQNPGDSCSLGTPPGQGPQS

T2: IL10RA (UniProt Q13651 22-578, limits assumed)
T2 sequence (looked up): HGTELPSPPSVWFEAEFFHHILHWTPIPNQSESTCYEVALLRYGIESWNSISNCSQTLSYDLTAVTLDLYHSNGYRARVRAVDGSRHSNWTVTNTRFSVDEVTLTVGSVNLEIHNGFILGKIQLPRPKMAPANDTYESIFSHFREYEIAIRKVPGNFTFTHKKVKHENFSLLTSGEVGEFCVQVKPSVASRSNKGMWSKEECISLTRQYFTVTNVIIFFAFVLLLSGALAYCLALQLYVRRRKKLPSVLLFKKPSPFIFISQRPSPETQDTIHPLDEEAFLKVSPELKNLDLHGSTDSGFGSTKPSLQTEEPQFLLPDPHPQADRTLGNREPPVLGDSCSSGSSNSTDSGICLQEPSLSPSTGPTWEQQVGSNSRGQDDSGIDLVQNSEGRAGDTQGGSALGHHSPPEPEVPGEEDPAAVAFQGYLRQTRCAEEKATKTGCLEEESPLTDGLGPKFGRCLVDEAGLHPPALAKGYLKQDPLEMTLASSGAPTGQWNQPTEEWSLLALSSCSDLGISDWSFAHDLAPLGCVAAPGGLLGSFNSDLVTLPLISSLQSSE

T3: IL10RB (UniProt Q08334 20-325, limits assumed)
T3 sequence (looked up): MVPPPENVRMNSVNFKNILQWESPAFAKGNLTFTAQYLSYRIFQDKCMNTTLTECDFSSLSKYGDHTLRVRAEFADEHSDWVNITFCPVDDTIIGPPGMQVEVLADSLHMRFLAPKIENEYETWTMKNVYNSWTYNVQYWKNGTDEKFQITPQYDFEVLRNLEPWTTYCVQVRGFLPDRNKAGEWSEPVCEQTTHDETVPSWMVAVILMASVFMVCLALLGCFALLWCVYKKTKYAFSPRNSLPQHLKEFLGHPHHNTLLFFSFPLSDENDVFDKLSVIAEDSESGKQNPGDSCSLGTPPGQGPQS


Experiments:
Assay in all cases: cell-based or functional assay
[1] = target: T1, IL-10 receptor (IL-10R: IL10RA and …)
IL10RA = target: T2, IL10RA
IL10RB = target: T3, IL10RB

IL-10 EC-50, HEK-Blue IL-10 reporter cells [1]	EC-50, HEK-Blue IL-10 reporter cells (IL10RA)	EC-50, HEK-Blue IL-10 reporter cells (IL10RB)	Binder
4.95e-10			Foldikine10_cut116-CSF1-HiBit (ligand) NKSKAVEQVKNAFNKLQEKGIYKAMSEFDIFINYIEAYMTMNNGGLDYLPNMLRDLRDAFSRVKTFFQMKDQLDNLLLKESLLEDFKGYLGCQALSEMIQFYLEEVMPQAENQDPDIKAHVNSLGENLKTLRLRLRRNHRFLPCENKSKAVEQVKNAFNKLQEKGIYKAMSEFDIFINYIEAYMTMNNGGLDYLPNMLRDLRDAFSRVKTFFQMKDQLDNLLLKESLLEDFKGYLGCQALSEMIQFYLEEVMPQAENQDPDIKAHVNSLGENLKTLRLRLRRNHRFLPCEGGGGGSGGSGGSGGSGGSGGSGGSGGSGGGEEVSEYCSHMIGSGHLQSLQRLIDSQMETSCQITFEFVDQEQLKDPVCYLKKAFLLVQDIMEDTMRFRDNTPNAIAIVQLQELSLRLKSCFTKDYEEHDKACVRTFYETPLQLLEKVKNVFNETKNLLDKDWNIFSKNCNNSFAECSSQDGGGVSGWRLFKKIS
2.41e-10			Foldikine10_cut116 (ligand) NKSKAVEQVKNAFNKLQEKGIYKAMSEFDIFINYIEAYMTMNNGGLDYLPNMLRDLRDAFSRVKTFFQMKDQLDNLLLKESLLEDFKGYLGCQALSEMIQFYLEEVMPQAENQDPDIKAHVNSLGENLKTLRLRLRRNHRFLPCENKSKAVEQVKNAFNKLQEKGIYKAMSEFDIFINYIEAYMTMNNGGLDYLPNMLRDLRDAFSRVKTFFQMKDQLDNLLLKESLLEDFKGYLGCQALSEMIQFYLEEVMPQAENQDPDIKAHVNSLGENLKTLRLRLRRNHRFLPCE
	9.44e-11	9.53e-11	ORK10-003-HiBit (ligand) MTQSENSCTHFPGNLPNMLRDLRDAFSRVKTFFQMKDQLDNLLLKESLLEDFKGYLGCQALSEMIQFYLEEVMPQAENQDPDIKAHVNSLGENLKTLRLRLRRCHRFLPCENKSKAVEQVKNAFNKLQEKGIYKAMSEFDIFINYIEAYLYKTITPEFANMLRDLRDAFSRVKTFFQMKDQLDNLLLKESLLEDFKGYLGCQALSEMIQFYLEEVMPQAENQDPDIKAHVNSLGENLKTLRLRLRRCHRFLPCENKSKAVEQVKNAFNKLQEKGIYKAMSEFDIFINYIEAYMTMGGVSGWRLFKKIS
		1.19e-10	ORK10-003-HiBit N92E (ligand) MTQSENSCTHFPGNLPNMLRDLRDAFSRVKTFFQMKDQLDNLLLKESLLEDFKGYLGCQALSEMIQFYLEEVMPQAENQDPDIKAHVNSLGENLKTLRLRLRRCHRFLPCENKSKAVEQVKNAFNKLQEKGIYKAMSEFDIFINYIEAYLYKTITPEFANMLRDLRDAFSRVKTFFQMKDQLDNLLLKESLLEDFKGYLGCQALSEMIQFYLEEVMPQAENQDPDIKAHVESLGENLKTLRLRLRRCHRFLPCENKSKAVEQVKNAFNKLQEKGIYKAMSEFDIFINYIEAYMTMGGVSGWRLFKKIS
